test: soluble on expression in E. coli; label from the status in PepcDB or PDB records

Sequence | soluble on expression in E. coli
QYQDYASFFRNNKSVTHLIVPSNFIGAGVSKYKDWKRSNIPYTQLDMAVVQNRPAGSLRRFVVLVVGETTRAANWGLNGYSRQTTPLLAARGDEIVNFPQVRSCGTSTAHSLPCMFSTFDRTDYDEIKAEHQDNLLDIVQRAGVEVTWLENDSGCKGVCGKVPNTDVTSLNLPEYCRNGECLDNILLTKFDEVLNKNDKDAVLILHTIGSHGPTYYERYTEAERKFTPTCDTNEINKCTRATLVNTYDNTVLYVDQFIDKVIRKLENRDDLESVVHYVSDHGESLGENG | not soluble
MTITSFGPANRIARTAETHPLTWRLRDDGEPVWLDEYQTKDGYAAARKALTQQAPDDIVQSVKDSGLKGRGGAGFPTGVKWGLMPKDESMNIRYLLCNADEMEPNTWKDRMLMEQLPHLLIEGMLISARALKAYRGYIFLRGEYVTAAKHLNRAVAEAKAAGLLGKNILGTGFDFELFVHTGAGRYICGEETALINSLEGRRANPRSKPPFPAAVGVWGKPTCVNNVETLCNVPAIVNNGNDWYKSLAREGSEDHGTKLMGFSGKVKNPGLWELPFGVQARELFEDYAGGMRDGFTLKCWQPGGAGTGFLLPEHLDAQMYAGGIAKVGTRMGTGLAMAVDDSVNMVSLLRNMEEFFAQESCGFCTPCRDGLPWSVKILRAIENGHGQPGDIETLLGLVNFLGPGKTFCAHAPGAVEPLGSAIKYFRSEFEAGIAPASAAMLVPGKSPTVVGALEHHHHHH | not soluble
METHEKIRLMRELNKWSQEDMAEKLAMSAGGYAKIERGETQLNIPRLEQLAQIFKIDMWDLLKSGGGGMVFQINEGDSGGDIALYASGDVSMKIEFLKMELKHCKEMLEQKDKEIELLRKLTETV | not soluble
MKISPSRQVKGEIEIIPVSGFRGIGKFIDVPWRLYADDPLWVPPLRLERRLHLSRFNPYFRHAQWQGWIACRDNQPVGRISAQIDELYQQRYGTDTGHFGMLESIQDEAVFSRLIQVAESWLVERGVRQISGPFNFSINQECGLLVQGFDTPPVFMMPYSPEWYTSLLEQNGYQPCKDLLAYWLVTDFDPPPAMQAIDRKYRHQIRIRPLQRNRFNEEIETMRDIFNDAWSDNWGFVPFTQEEFAELGSSLRWLVPDEFIQIAEIDGRPVAFMAVLPNLNEVLPALNGKLLPLGWLHLINKLKSASITTGRVPLMGVRKQFHHTLVGIALAFKVIDAPRKMVKSRGIGHVELSWILEDNQSMRAILEKIGGREYKRYRIYDKTLA | not soluble
VAYWLVKSEPSVWSWDQQVAKGAAGEAWTGVRNHSAKLHMVAMRRGDRAFYYHSNEGKEIVGIAEIIREAYPDPTDASGKFVCVDIKADKPLKTPVTLAAVKAEPRLADMALMKYSRLSVQPVTAEEWKLVCKMGGLLEHHHHHH | soluble
MGSDKIHHHHHHMYKNSMVIGKFYPPHAGHAHLINTAAAQSENVSVLVLGNRFESITVADRTTWLAAEFEDIAGVHVIGMPNDCPEDYDSEEIWKAQSELMRLALKTHGVTEVEAVFSSEEYGAQLAQAFGAEHVLVDQSRTTFPISGTLCRDDLGSAWPFIIGPARQGLATRIILVGAESSGTSTLAKALTEHYRPRFPGITDVPEYGRDYTYEKFDALRAKMPEAVLEDMVWNEQDFGRIATRQNEMENAAADACPLVIADTDSLATTLWERFYIGERSYGSYLAASNLPPRDLYLITDHEGVEFEDDGWREGEHRRAEMTEWFKEALTAEGHSWILVSGDHERRKQTAVEIIELILMQRSKFTSPPWATRTVLEGAAV | not soluble
MSLINVQNVSKTFILHQQNGVRLPVLNRASLTVNAGECVVLHGHSGSGKSTLLRSLYANYLPDEGQIQIKHGDEWVDLVTAPARKVVEIRKTTVGWVSQFLRVIPRISALEVVMQPLLDTGVPREACAAKAARLLTRLNVPERLWHLAPSTFSGGEQQRVNIARGFIVDYPILLLDEPTASLDAKNSAAVVELIREAKTRGAAIVGIFHDEAVRNDVADRLHPMGASEGHHHHHH | not soluble
STRFPGVAIYLVEPRMGRSRRAFLTGLARSKGFRVLDACSSEATHVVMEETSAEEAVSWQERRMAAAPPGCTPPALLDISWLTESLGAGQPVPVECRHRLEVAGPRKGPLSPAWMPAYAC | soluble
MHHHHHHGSMGMMSRYEELRKELPAQPKVWLITGVAGFIGSNLLETLLKLDQKVVGLDNFATGHQRNLDEVRSLVSEKQWSNFKFIQGDIRNLDDCNNACAGVDYVLHQAALGSVPRSINDPITSNATNIDGFLNMLIAARDAKVQSFTYAASSSTYGDHPGLPKVEDTIGKPLSPYAVTKYVNELYADVFSRCYGFSTIGLRYFNVFGRRQDPNGAYAAVIPKWTSSMIQGDDVYINGDGETSRDFCYIENTVQANLLAATAGLDARNQVYNIAVGGRTSLNQLFFALRDGLAENGVSYHREPVYRDFREGDVRHSLADISKAAKLLGYAPKYDVSAGVALAMPWYIMFLK | soluble
MTEILQTLKEYIPISLEEMSGIKLMNRTDTKYVTSYQILKEILLAAGHDYRVQEVNGEYNIAYHTIYLDTADRDMYLTHQNGRVVREKIRIRTYVDSDLTFLEVKNKNNKGRTDKKRIRIGSIDTIKEDGGEAFLRQHAWYEQSQLLPLLENSFRRITLVNKHKTERLTIDTGVTFCCLQSGKISSLDNIVIIELKRDGHNSSPIKEILRKLHIQSSGFSKYCIGSALTVSHLKCNRLKPKLRMLNKMGVYLEHHHHHH | soluble
METTGDKAFYFLLKNCGHSLKFVDLRNSKRLHGRSFKLFGSQLESLYLDGSSKVDEMAFEDLCTSCGGLKELRINECYKITDENLSMIARRMEDLSILTLCGDGFKSLTSAGLIHISHMRNITELALDYNALVNDELLISISAGLPLLSSLSLANAGNDSSITAEGVSAIKNLKELTQLDASSLAAVNSKVLEQLGSLKKLEIIQLRNCTYLGDDGVRAKLRMPNIRHVDLSGSILVSNDSIQQFIKAFPSGPKLPPITLVVGGTAADASKLSVRGSRVVVDFSDYSTIVTMQTSQCSSSKFAIGGSASDAEGSDDEFEALTAQRSFYIDAVCGEEESPITDDGKLAEWAEKEARSLGLIKD | not soluble
MAHHHHHHMLECNTNSALMEAHFGVVHADQLVPRALSSHAAAAQLSGASKPDKTPTPSLPPGPFIVMGLYGRNVLVLIADGEGQTAVQIHVTRGVAEVAETFRKVAGTPLPPPALPLEPLSVPASPPESTMVAEAAAASRLVANDEVSQERPQAPETERREDQAGPVPATVTCIVAEETDAFMAPAADIAAAAAAEAQLCKDKAAGMRGVEGVCKEVGTATPVADEERHGGPPPTKEVILTDLHKAGETAAHACSSVVVEISQGVSISAASAPRTWRWSSTTSSSASSSSFDSHASQRLRQQQQQSRLEQIGEEQAHRSGPSTGRASAPSTPTDKVVEEVAEAWPTYGAQLLESAEEVTVVPAVTPATDDAPPLMTLPAAEHAMTSQNGEGVFQAEAAIGVVEAANTKTPGEKDVHYHDDGVVSADASLHGQSLLQLPEKDLSAPEGESEKHLQLGSSLAVQFFADHTPSLLPASSSMPRPSQQQHTGDAQEASLGTEVSFDEDGVDAHRLPATLESDCEERVQHVSGADADDVAGPVIAFQASSLLASVEQRGWANQAPPVRHVAIPAGEEVAVTTAMARSATAFTPSYSPPPASPADLRAAPRVWGAQGTSYPTSGPSPCAAAVGLQHHSAATPFTNFLKAYAVYVLGTHGAASGGESKQLRNGTAPHMNECAAGAGEASRGVAELASILDFYREQPLARIMEATAIQRRCRAAWNEVIASTPASAAAQVGSDVEVCKLKASASTTVFTELCVDELVSLLAIVHYPSPRQDG | not soluble
SNAMNASAVETIYESTEDKAALTSVVDLVKLSDQYRQSAILHYAVADKLFDLTQTGRTPAEVAASFGMVEGKAAILLHALAALGLLTKEGDAFRNTALTERYLTTTSADYIGPIVEHQYLQWDNWPRLGEILRSEKPLAFQQESRFAHDTRARDAFNDAMVRLSQPMVDVVSELGVFARARTVIDLAGGHGTYLAQVLRRHPQLTGQIWDLPTTRDAARKTIHAHDLGGRVEFFEKNLLDARNFEGGAADVVMLNDCLHYFDAREAREVIGHAAGLVKPGGALLILTMTMNDDRVTPALSADFSLHMMVNTNHGELHPTPWIAGVVRDAGLAVGERSIGRYTLLIGQRSSGE | soluble
MGSDKIHHHHHHMSDGRLTALFPAFPHPASNQPVFAEASPHDDELMTQAVPQVSCQQALAIAQQEYGLSGQMSLLQGERDVNFCLTVTPDERYMLKVINAAEPADVSNFQTALLLHLARQAPELPVPRIRSTKAGQSETGVEIDGVLLRVRLVSYLAGMPQYLASPSTALMPQLGGTLAQLDNALHSFTHPAANRALLWDISRAEQVRPYLDFVSEPQQYQHLQRIFDRYDSNVAPLLTTLRRQVIHNDLNPHNVLVDGSSPTRVTGIIDFGDAVFAPLICEVATALAYQIGDGTDLLEHVVPFVAAYHQRIPLAPEEIALLPDLIATRMALTLTIAQWRASRYPDNREYLLRNVPRCWHSLQRIATYSHAQFLTRLQQVCPENAR | not soluble
MAHHHHHHMISYSGVLYTSDLMAQLMEMVKYSTHASSRDSDAQRLLRYAVRGSSAAQDDLYRSLWLKVEMVADSRVLGRYIGAREPWSPIRVCFDERGLFKSYPPLVHASAKKTSAIEADATSGSGSTTMEEEQRQQSERQGMSTEITSHTSEGGEEMVEGVRGAVVAEASEASGVKDVALQEASHGEQRTVEALDLRWDDIHRLIERTRALTSPPTERHPQQEKMEIFTGIAVYLRTIATGRRYCSGEEEAGGEYPAESRERALFAVGYELDVWARLFELVQEVRHDMEKFITDNAAHHVEPEFECWEALLITLRCILDFCVVRTQEKGKEERAAVEELFEKTMKLRNELVEESRTRFGGRMRILWLQEA | not soluble
MSLTIYHPAELPQRQAEKSPNKTIIKYYDRESKQWRNISWSKFAAGVMNAAKALAEIGLESGERIGIYSPNMVHCLYTELGAFAMRGVVVPLYATSSPEQLRFIVEDSSMETLFVGEQFQYNNAYRVQKEYGTLKRIVVFDERVVLNPEDKTSKYFSEFVRLGDSMPNETKVKVSSREAIPSDPALIIYTSGTSGRSKGVLLLHSNLMYQMKVHSEHIPVYGPGELSIAFLPMSHIFEKAWTLFCLTTGTRIAILRDPKKVLEALPQIRPSLMCNVPRFWEKVYQGVNEKMASSPRILKGVYRRAMAVGQRYRLDYWNEGKRAPLLLSMQYAFYNCTIFTLLKRVLGLQRGRYFPTAGAPLSDEINIFLQSVNIPIIVGYGLSETTATVSFYPQRGFKIGSMGKVMPGLDARIDPDNNEILVKGESVMSEYYNLPEETAGAFTPDGYFRTGDAGRMDPDGTLYFLERIKDLYKTANGKYIAPQMIEGMLTKDPIIEQIAVIGDRFKYVSALVYPNWELVRQAAIKRGLEQAREGHHHHHH | not soluble
MKIALIGATGMAGSRILEELVSRGHYVKALARDTHKVADTERVMAVDIDLNDHDALVEALRGQDAVISAVRFHGLDANALFNAIHDSKVKRYLVVGGAGSLHVPHQNTRVLDSEDFPEAYKPEAEAAAHFLDKLKEKDDLDWTFISPSAEFGPGKRTGEFRLGKDELLVGEEGSKISAEDFAVALADELEHNNHIQQRFTVGYLEHHHHHH | not soluble
MKKIATATIATAGIATFAFAHHDAQAAEQNNDGYNPNDPYSYSYTYTIDAEGNYHYTWKGNWSPDRVNTSYNYNNYNNYNYYGYNNYSNYNNYSNYNNYNNYQSNNTQSQRTTQPTGGLGASYSTSSSNVHVTTTSAPSSNGVSLSNARSASGNLYTSGQCTYYVFDRVGGKIGSTWGNANNWANAAARSGYTVNNSPAKGAILQTSQGAYGHVAYVEGVNSNGSIRVSEMNYGHGAGVVTSRTISASQAASYNYIHLEHHHHHH | not soluble
MGSDKIHHHHHHMVYVGTSGFSFEDWKGVVYPEHLKPSQFLKYYWAVLGFRIVELNFTYYTQPSWRSFVQMLRKTPPDFYFTVKTPGSVTHVLWKEGKDPKEDMENFTRQIEPLIEEQRLKMTLAQFPFSFKFSRKNVEYLEKLRESYPYELAVEFRHYSWDREETYEFLRNHGITFVVVDEPKLPGLFPYRPITTTDYAYFRFHGRNERWFEAEGEERYDYLYSEEELKTLFEDVVELSRRVKETYVFFNNCYKGQAAINALQFKKMLEERV | soluble

Source: the DeepSol protein solubility set
